Key:
[1] = molecular target: T1, human PSMA on prostate cancer cell lines (22RV1, C4-2B) (human, UniProt Q04609 1-750); assay: flow cytometry on C4-2B cells
T1 construct: also called PSMA-expressing cell lines
Description: (§1) 22RV1 and C4-2B cells were plated at 50,000 cells per well in 50 μl of assay medium (RPMI, 10% HI FBS) in V bottom plates. Serial dilutions of antibodies were prepared in assay medium with 50 μl of antibody dilutions added to the plates containing cells. The plates were incubated for 60 min at 37° C. at which time 100 μl of staining buffer (Becton Dickinson Cat #554657) was added to all wells of each plate. The plates were centrifuged at 300×G for 5 minutes and the medium was removed from the wells. 200 μl of staining buffer was added to all wells of each plate. The plates were centrifuged at 300× G for 5 minutes and the medium was removed from the wells. 50 μl of 2 μg/ml AlexaFluor647-labeled goat anti-human Fc was added to all wells of the plates and the plates were incubated for 30 minutes at 4° C. 150 μl of staining buffer was added to all wells of each plate. The plates were centrifuged at 300× G for 5 minutes and the medium was removed from the wells.

[2] = molecular target: T1, human PSMA on prostate cancer cell …; assay: flow cytometry on 22RV1 cells; 22RV1 cells
Description: as §1

T1 sequence (Q04609 whole entry): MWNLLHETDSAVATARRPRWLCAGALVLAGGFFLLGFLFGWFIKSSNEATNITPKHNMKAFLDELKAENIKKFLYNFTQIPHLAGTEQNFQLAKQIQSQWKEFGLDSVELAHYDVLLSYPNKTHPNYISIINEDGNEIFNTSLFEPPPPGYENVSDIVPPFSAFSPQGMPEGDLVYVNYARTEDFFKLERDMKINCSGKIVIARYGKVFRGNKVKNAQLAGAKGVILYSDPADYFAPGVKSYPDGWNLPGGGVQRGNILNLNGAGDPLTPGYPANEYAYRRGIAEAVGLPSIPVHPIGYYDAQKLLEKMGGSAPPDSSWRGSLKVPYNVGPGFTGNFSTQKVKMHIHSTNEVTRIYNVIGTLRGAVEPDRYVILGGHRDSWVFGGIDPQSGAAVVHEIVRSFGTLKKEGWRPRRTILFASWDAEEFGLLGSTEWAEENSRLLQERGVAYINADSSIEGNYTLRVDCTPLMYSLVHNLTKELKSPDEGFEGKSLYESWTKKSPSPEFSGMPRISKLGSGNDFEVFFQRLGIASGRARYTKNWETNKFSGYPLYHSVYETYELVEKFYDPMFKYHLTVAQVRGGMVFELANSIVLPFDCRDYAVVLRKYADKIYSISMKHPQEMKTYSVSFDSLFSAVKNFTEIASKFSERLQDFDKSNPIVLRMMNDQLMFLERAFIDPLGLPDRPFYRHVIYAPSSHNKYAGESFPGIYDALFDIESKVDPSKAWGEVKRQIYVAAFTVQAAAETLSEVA

EC50 [1]: 60 nM
EC50 [2]: ≥ 60 nM
B1: PS3B918 (bispecific antibody, human IgG1, lambda, L234A L235A)
heavy 1: QVQLQQSGPRLVRPSQTLSLTCAISGDSVFNNNAAWSWIRQSPSRGLEWLGRTYYRSKWLYDYAVSVKSRITVNPDTSRNQFTLQLNSVTPEDTALYYCARGYSSSFDYWGQGTLVTVSSASTKGPSVFPLAPSSKSTSGGTAALGCLVKDYFPEPVTVSWNSGALTSGVHTFPAVLQSSGLYSLSSVVTVPSSSLGTQTYICNVNHKPSNTKVDKKVEPKSCDKTHTCPPCPAPEAAGGPSVFLFPPKPKDTLMISRTPEVTCVVVSVSHEDPEVKFNWYVDGVEVHNAKTKPREEQYNSTYRVVSVLTVLHQDWLNGKEYKCKVSNKALPAPIEKTISKAKGQPREPQVYTLPPSREEMTKNQVSLTCLVKGFYPSDIAVEWESNGQPENNYKTTPPVLDSDGSFLLYSKLTVDKSRWQQGNVFSCSVMHEALHNHYTQKSLSLSPG
light 1: QSALTQPASVSGSPGQSITISCTGTSSNIGTYKFVSWYQQHPDKAPKVLLYEVSKRPSGVSSRFSGSKSGNTASLTISGLQAEDQADYHCVSYAGSGTLLFGGGTKLTVLGQPKAAPSVTLFPPSSEELQANKATLVCLISDFYPGAVTVAWKADSSPVKAGVETTTPSKQSNNKYAASSYLSLTPEQWKSHRSYSCQVTHEGSTVEKTVAPTECS
heavy 2: EVQLVESGGGLVKPGGSLRLSCAASGFTFSRYNMNWVRQAPGKGLEWVSSINSNSRYIYYADSVKGRFTISRDSAKNSLYLQMNSLRAEDTAVYYCAKTMGDYYYYYGMDVWGQGTTVTVSSASTKGPSVFPLAPSSKSTSGGTAALGCLVKDYFPEPVTVSWNSGALTSGVHTFPAVLQSSGLYSLSSVVTVPSSSLGTQTYICNVNHKPSNTKVDKKVEPKSCDKTHTCPPCPAPEAAGGPSVFLFPPKPKDTLMISRTPEVTCVVVSVSHEDPEVKFNWYVDGVEVHNAKTKPREEQYNSTYRVVSVLTVLHQDWLNGKEYKCKVSNKALPAPIEKTISKAKGQPREPQVYTLPPSREEMTKNQVSLTCLVKGFYPSDIAVEWESNGQPENNYKTTPPVLDSDGSFFLYSRLTVDKSRWQQGNVFSCSVMHEALHNHYTQKSLSLSPG
light 2: SSELTQPPSVSGAPGQRVTISCAGSLSNIGAGYDVHWYQQLPGTAPKLLIYGNINRLSGVPERFSGSKSGTSASLAITGLQAEDGADYYCQSYDSSLSSYVFGTGTKVTVLGQPKAAPSVTLFPPSSEELQANKATLVCLISDFYPGAVTVAWKADSSPVKAGVETTTPSKQSNNKYAASSYLSLTPEQWKSHRSYSCQVTHEGSTVEKTVAPTECS
notes: FAB-A: CD3B891 (CD3B376 - K477); FAB-B: PSMB890

Reference: patent US20250145711A1 (Janssen / Centocor, published 2025)
